T1: plasma-derived human FVII (Enzyme Research Labs) (human, UniProt P08709 61-466)
T1 construct: mature; also called pdFVII; Standard FVII
T1 sequence (looked up): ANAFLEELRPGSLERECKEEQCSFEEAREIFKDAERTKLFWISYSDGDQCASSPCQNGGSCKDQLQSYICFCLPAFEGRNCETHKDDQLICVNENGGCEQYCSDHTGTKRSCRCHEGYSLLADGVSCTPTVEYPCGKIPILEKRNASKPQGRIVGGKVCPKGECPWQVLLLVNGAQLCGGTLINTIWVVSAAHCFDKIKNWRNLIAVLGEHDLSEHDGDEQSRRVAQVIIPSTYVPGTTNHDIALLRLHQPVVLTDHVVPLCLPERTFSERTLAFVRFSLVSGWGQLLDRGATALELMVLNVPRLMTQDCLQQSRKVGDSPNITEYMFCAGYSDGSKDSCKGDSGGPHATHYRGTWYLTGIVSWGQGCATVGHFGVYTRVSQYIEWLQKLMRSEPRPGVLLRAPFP


Legend:
[1] = target: T1, plasma-derived human FVII (Enzyme …); experiment: surface plasmon resonance (BIAcore); sTF captured by immobilized anti-TF antibody, FVII injected
Source text: An anti-TF antibody was immobilized on the BIAcore flow cell at high density and subsequently reacted with recombinant sTF. […] Data from reference cells containing the same amount of anti-TF antibody but no sTF were subtracted to correct for non-specific binding. […]

[2] = target: T2, monoclonal antibody 231-7; experiment: competitive ELISA; rFVIIa competes with biotinylated plasma-derived FVII for adsorbed MoAb 231-7
T2 construct: Conformation-sensitive antibody to the FVII EGF-1 domain; also called MoAb231-7
Method: Following four washes with TBS-T w/o BSA containing 1 M NaCl, 100 μl streptavidin-alkaline phosphatase (1:25,000 dilution in TBS-T+BSA) was added for 1 hr, RT. After an additional four washes with TBS-T w/o BSA containing 1M NaCl, the colourimetric reaction was developed with 100 μl of 1 mg/ml p-nitrophenylphosphate in diethanolamine buffer (10% diethanolamine, 0.5 mM MgCl₂, pH 9.8). The reaction was stopped after 60 minutes by the addition of 25 μl of 0.5M EDTA to each well.

Row | Kd [1] [nM] | Relative Increase in Affinity (relative to rFVIIa (wt)) [2] [fold] | Binder
1 | 29 |  | recombinant soluble human tissue factor (receptor, UniProt P13726 33-251, looked up, extracellular domain; It was captured on the BIAcore chip by an immobilized anti-TF antibody; also called sTF; soluble human TF) SGTTNTVAAYNLTWKSTNFKTILEWEPKPVNQVYTVQISTKSGDWKSKCFYTTDTECDLTDEIVKDVKQTYLARVFSYPAGNVESTGSAGEPLYENSPEFTPYLETNLGQPTIQSFEQVGTKVNVTVEDERTLVRRNNTFLSLRDVFGKDLIYTLYYWKSSSSGKKTAKTNTNEFLIDVDKGENYCFSVQAVIPSRTVNRKSTDSPVECMGQEKGEFRE
2 |  | 1.4 | rFVIIa(wt)-FFR (enzyme, human, active site covalently modified with the peptide chloromethylketone FFRck, range 1-152;range 153-406; also called rFVIIa(wt)-FFRck; rFVIIai(wt)) chain 1: ANAFLEELRPGSLERECKEEQCSFEEAREIFKDAERTKLFWISYSDGDQCASSPCQNGGSCKDQLQSYICFCLPAFEGRNCETHKDDQLICVNENGGCEQYCSDHTGTKRSCRCHEGYSLLADGVSCTPTVEYPCGKIPILEKRNASKPQGR chain 2: IVGGKVCPKGECPWQVLLLVNGAQLCGGTLINTIWVVSAAHCFDKIKNWRNLIAVLGEHDLSEHDGDEQSRRVAQVIIPSTYVPGTTNHDIALLRLHQPVVLTDHVVPLCLPERTFSERTLAFVRFSLVSGWGQLLDRGATALELMVLNVPRLMTQDCLQQSRKVGDSPNITEYMFCAGYSDGSKDSCKGDSGGPHATHYRGTWYLTGIVSWGQGCATVGHFGVYTRVSQYIEWLQKLMRSEPRPGVLLRAPFP
3 |  | 2.8 | rFVIIa(wt)-DEGR (enzyme, human, active site covalently modified with the peptide chloromethylketone DEGRck, range 1-152;range 153-406; also called rFVIIa(wt)-DEGRck; rFVIIai(wt)) chain 1: ANAFLEELRPGSLERECKEEQCSFEEAREIFKDAERTKLFWISYSDGDQCASSPCQNGGSCKDQLQSYICFCLPAFEGRNCETHKDDQLICVNENGGCEQYCSDHTGTKRSCRCHEGYSLLADGVSCTPTVEYPCGKIPILEKRNASKPQGR chain 2: IVGGKVCPKGECPWQVLLLVNGAQLCGGTLINTIWVVSAAHCFDKIKNWRNLIAVLGEHDLSEHDGDEQSRRVAQVIIPSTYVPGTTNHDIALLRLHQPVVLTDHVVPLCLPERTFSERTLAFVRFSLVSGWGQLLDRGATALELMVLNVPRLMTQDCLQQSRKVGDSPNITEYMFCAGYSDGSKDSCKGDSGGPHATHYRGTWYLTGIVSWGQGCATVGHFGVYTRVSQYIEWLQKLMRSEPRPGVLLRAPFP

Reference: patent US20070207960A1 (published 2007)
